From US20140369964A1 (GLYTECH, published 2014) come the findings set out here.

The experiment concerns the target T1, IFN-α/β receptor 2 (UniProt P48551 27-243, limits assumed).
T1 sequence (looked up): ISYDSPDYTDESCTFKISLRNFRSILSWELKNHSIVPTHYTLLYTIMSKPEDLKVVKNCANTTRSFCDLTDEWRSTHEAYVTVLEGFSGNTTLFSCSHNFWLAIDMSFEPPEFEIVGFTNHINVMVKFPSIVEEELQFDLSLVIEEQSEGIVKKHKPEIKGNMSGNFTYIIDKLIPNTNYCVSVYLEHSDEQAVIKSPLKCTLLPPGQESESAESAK
In words: SPR (ProteOn XPR36), receptor amine-coupled to GLM chip, IFN-β as analyte at 0.31-25 nM. As for the experimental part:
The binding affinity of the non-heated or heat-treated chemically synthesized IFN-β against IFN-α/β receptor 2 was measured with ProteOn XPR36 (Bio-rad) employing SPR (Surface Plasmon Resonance technology).
Specifically, 10 μg/mL of IFN-α/β receptor 2 (10 mM acetic acid buffer, pH 4.5) was fixed to a GLM chip (Bio-rad) according to instructions by employing an amine coupling kit (Bio-rad) and flowing 0.005% Tween 20/PBS at a flow rate of 30 μL/min. The non-heated disialo sugar chain attached polypeptide (10) prepared in Example 3, or the heat-treated disialo sugar chain attached polypeptide obtained by subjecting the disialo sugar chain attached polypeptide heat-treated in the above 9-1. to the de-Acm step, the benzyl group deprotection step, and the folding step described in the above 3-4.-3-6. were adjusted to 0.31-25 nM with 0.1% BSA and 2 mM EDTA/PBS, and added to the chip at a flow rate 50 of μL/min. The analysis with glycosylated polypeptide (10) was carried out at each of five concentrations of 0.31 nM, 0.93 nM, 2.8 nM, 8.3 nM, and 25 nM. The binding constant (ka), the dissociation constant (kd), and the binding dissociation constant (Kd) were analyzed with ProteOn Manager software. The results thereof are shown in FIG. 38, FIG. 39, and Table 1.

B1: non-heated disialo sugar chain attached polypeptide (10) (ligand)
chain: MSYNLLGFLQRSSNFQCQKLLWQLNGRLEYCLKDRMNFDIPEEIKQLQQFQKEDAALTIYEMLQNIFAIFRQDSSSTGWNETIVENLLANVYHQINHLKTVLEEKLEKEDFTRGKLMSSLHLKRYYGRILHYLKAKEYSHCAWTIVRVEILRNFYFINRLTGYLRN
modifications: disialo sugar chain on Asn at position 80; folded, with a mass loss of 2 Da after folding (disulfide bond, Cys 31-Cys 141 in interferon β)
notes: also called glycosylated polypeptide (10); disialo IFN-β
Turning to B1, binding was characterised by a dissociation constant (Kd) of 0.49 nM; the off-rate (koff) (in general, a measure of how fast the partners let go of each other) was found to be 0.0027 s⁻¹; the kon (in general, a measure of how fast the partners come together) worked out at 5.5e+06 M⁻¹ s⁻¹.

B2: heat-treated disialo sugar chain attached polypeptide (ligand)
chain: B1 chain
modifications: disialo sugar chain on Asn at position 80; folded as in step 3-6
notes: also called heat-treated chemically synthesized IFN-β
As for B2, the Kd (commonly the free concentration of one partner at which half of the binding sites on the other are occupied at equilibrium, for simple one-to-one binding) worked out at 0.53 nM; the off-rate (koff) was determined as 0.0023 s⁻¹; the kon was found to be 4.3e+06 M⁻¹ s⁻¹.
